According to patent publication US20240207464A1:

How the values were obtained:
[1] = target: Protein G (Dynabeads Protein G, Thermo Fisher Scientific) (UniProt P19909); assay: immunoprecipitation with Dynabeads Protein G after storage in mouse plasma at 37 C, 7 day point
[2] = target: Protein G (Dynabeads Protein G, Thermo Fisher Scientific) (UniProt P19909); assay: immunoprecipitation with Dynabeads Protein G after storage in human plasma at 37 C, 7 day point
[3] = target: Protein G (Dynabeads Protein G, Thermo Fisher Scientific) (UniProt P19909); assay: immunoprecipitation with Dynabeads Protein G after storage in rat plasma at 37 C, 7 day point
[4] = target: Protein G (Dynabeads Protein G, Thermo Fisher Scientific) (UniProt P19909); assay: immunoprecipitation with Dynabeads Protein G after storage in monkey plasma at 37 C, 7 day point
[5] = target: Protein G (Dynabeads Protein G, Thermo Fisher Scientific) (UniProt P19909); assay: immunoprecipitation with Dynabeads Protein G after storage in rat plasma at 37 C, 0 day point
[6] = target: Protein G (Dynabeads Protein G, Thermo Fisher Scientific) (UniProt P19909); assay: immunoprecipitation with Dynabeads Protein G after storage in human plasma at 37 C, 0 day point; share of radioactivity bound to Protein G
[7] = target: Protein G (Dynabeads Protein G, Thermo Fisher Scientific) (UniProt P19909); assay: immunoprecipitation with Dynabeads Protein G after storage in human plasma at 37 C, 1 day point
[8] = target: Protein G (Dynabeads Protein G, Thermo Fisher Scientific) (UniProt P19909); assay: immunoprecipitation with Dynabeads Protein G after storage in mouse plasma at 37 C, 0 day point
[9] = target: Protein G (Dynabeads Protein G, Thermo Fisher Scientific) (UniProt P19909); assay: immunoprecipitation with Dynabeads Protein G after storage in monkey plasma at 37 C, 0 day point
[10] = target: Protein G (Dynabeads Protein G, Thermo Fisher Scientific) (UniProt P19909); assay: immunoprecipitation with Dynabeads Protein G after storage in mouse plasma at 37 C, 1 day point
[11] = target: Protein G (Dynabeads Protein G, Thermo Fisher Scientific) (UniProt P19909); assay: immunoprecipitation with Dynabeads Protein G after storage in human plasma at 37 C, 14 day point
[12] = target: Protein G (Dynabeads Protein G, Thermo Fisher Scientific) (UniProt P19909); assay: immunoprecipitation with Dynabeads Protein G after storage in rat plasma at 37 C, 1 day point
[13] = target: Protein G (Dynabeads Protein G, Thermo Fisher Scientific) (UniProt P19909); assay: immunoprecipitation with Dynabeads Protein G after storage in monkey plasma at 37 C, 1 day point

recovery rate (%) by beads [1]: 93.1% | recovery rate (%) by beads [2]: 81% | recovery rate (%) by beads [3]: 90.4% | recovery rate (%) by beads [4]: 90.5% | recovery rate (%) by beads [5]: 97.4% | recovery rate (%) by beads [6]: 95% | recovery rate (%) by beads [7]: 90.5% | recovery rate (%) by beads [8]: 98.1% | recovery rate (%) by beads [9]: 92.9% | recovery rate (%) by beads [10]: 95% | recovery rate (%) by beads [11]: 76.4% | recovery rate (%) by beads [12]: 94.8% | recovery rate (%) by beads [13]: 90.4%
Substance: radioconjugate (Example 1): conjugate with rituximab by using 225Ac-labeled DOTAGA-DBCO (antibody)
